Test results reported in the Immune Epitope Database (IEDB).
pKd: −log10 of the molar value.

How the values were obtained:
Experiment in all cases: IEDB peptide-MHC binding, purified MHC/competitive/radioactivity; filed as Kd, often an IC50 or EC50 that approximates it; ≥ and ≤ were set here for values at or beyond the usual limits of such assays
[1] = biological target: HLA-A*03:01
[2] = biological target: HLA-A*11:01
[3] = biological target: HLA-A*31:01
[4] = biological target: HLA-A*33:01
[5] = biological target: HLA-A*68:01
[6] = biological target: HLA-A*02:03; conditions: source organism: Dengue virus 2 Jamaica/1409/1983
[7] = biological target: HLA-A*02:06; conditions: source organism: Dengue virus 2 Jamaica/1409/1983
[8] = source organism: Vaccinia virus WR
[9] = source organism: SARS coronavirus Tor2
[10] = source organism: Mammarenavirus machupoense
[11] = source organism: Mammarenavirus guanaritoense
[12] = source organism: Lymphocytic choriomeningitis virus (strain Armstrong)
[13] = source organism: Vaccinia virus Copenhagen

Row | Sequence | pKd [1, 8] | pKd [2, 8] | pKd [3, 8] | pKd [4, 8] | pKd [5, 8] | also measured
1 | PSTVKTNLY | ≤ 4.39 | 5.17 | 5.21 | 5.43 | 5.10 | 
2 | QAIEPSGNNY | ≤ 4.15 | 5.32 | 5.46 | ≤ 4.15 | 6.16 | 
3 | QMAPVSAMVR |  |  |  |  |  | pKd [1, 9]: 6.28; pKd [2, 9]: 5.97; pKd [3, 9]: 5.99; pKd [4, 9]: 5.14; pKd [5, 9]: 6.80
4 | QMLTSGEYK | 8.16 | 8.44 | 7.55 | 5.14 | 6.58 | 
5 | QQVVDADSK |  |  |  |  |  | pKd [1, 9]: ≤ 4.55; pKd [2, 9]: ≤ 4.58; pKd [3, 9]: ≤ 4.11; pKd [4, 9]: ≤ 4.11; pKd [5, 9]: ≤ 4.18
6 | QTCAGVIEY | 5.49 | 6.87 | 4.72 | ≤ 4.11 | 5.75 | 
7 | RLISMMGFK |  |  |  |  |  | pKd [1, 9]: 8.50; pKd [2, 9]: 7.65; pKd [3, 9]: 6.98; pKd [4, 9]: ≤ 4.11; pKd [5, 9]: 6.15
8 | RQTVSRFKK | 7.40 | 7.39 | 7.88 | 5.18 | 5.33 | 
9 | SAKQLRTRIR | ≤ 4.15 | ≤ 4.34 | 5.96 | 4.76 | ≤ 4.54 | 
10 | SASAFFGMSR |  |  |  |  |  | pKd [1, 9]: 6.02; pKd [2, 9]: 7.92; pKd [3, 9]: 8.02; pKd [4, 9]: 6.92; pKd [5, 9]: 8.00
11 | SIFPANINDK | 5.91 | 8.13 | ≤ 4.15 | ≤ 4.34 | 6.92 | 
12 | SLRCGACIRR |  |  |  |  |  | pKd [1, 9]: 6.58; pKd [2, 9]: 6.02; pKd [3, 9]: 7.79; pKd [4, 9]: 7.05; pKd [5, 9]: 6.04
13 | SMNVAVIDK | ≤ 4.17 | 9.56 | 6.21 | 5.15 | 5.31 | 
14 | SQASSRSSSR |  |  |  |  |  | pKd [1, 9]: 5.10; pKd [2, 9]: 5.82; pKd [3, 9]: 6.33; pKd [4, 9]: 5.88; pKd [5, 9]: 6.40
15 | SSFDYCGTDH |  |  |  |  |  | pKd [1, 10]: ≤ 4.15; pKd [2, 10]: ≤ 4.16; pKd [3, 10]: ≤ 4.50; pKd [4, 10]: ≤ 4.38; pKd [5, 10]: ≤ 4.38
16 | SSRVDRYSKK | 6.55 | 6.48 | 6.08 | ≤ 4.53 | 5.52 | 
17 | SVKSFEIDK |  |  |  |  |  | pKd [1, 9]: 5.81; pKd [2, 9]: 6.86; pKd [3, 9]: 5.95; pKd [4, 9]: 4.91; pKd [5, 9]: 6.14

Row | Sequence | pKd [1, 8] | pKd [2, 8] | pKd [3, 8] | pKd [4, 8] | pKd [5, 8] | also measured
18 | TAFQHQNSKK |  |  |  |  |  | pKd [1, 9]: 6.48; pKd [2, 9]: 6.86; pKd [3, 9]: ≤ 4.27; pKd [4, 9]: ≤ 4.15; pKd [5, 9]: 7.79
19 | TAVCMKCFK | 6.68 | 7.99 | 6.35 | 5.35 | 7.95 | 
20 | TFIMLEGETK | 7.41 | 7.93 | 6.09 | 5.47 | 6.75 | 
21 | TLDQLEDSEY | 5.06 | 5.77 | 4.84 | ≤ 4.39 | 5.39 | 
22 | TLLATVTGGI |  |  |  |  |  | pKd [6]: 7.89
23 | TMEIEDQEYH |  |  |  |  |  | pKd [1, 11]: ≤ 4.15; pKd [2, 11]: ≤ 4.16; pKd [3, 11]: ≤ 4.15; pKd [4, 11]: ≤ 4.15; pKd [5, 11]: 5.07
24 | TQTAGPWHL |  |  |  |  |  | pKd [7]: 6.36
25 | VIEDITFLR | 5.81 | 7.26 | 7.56 | 6.38 | 7.93 | 
26 | VSIILANER | ≤ 4.11 | 7.33 | 6.89 | 5.11 | 8.07 | 
27 | VTFRERYSYK | 9.34 | 8.50 | 5.47 | 5.61 | 8.55 | 
28 | VTMFEALPH |  |  |  |  |  | pKd [1, 12]: 6.33; pKd [2, 12]: 7.81; pKd [3, 12]: ≤ 4.11; pKd [4, 12]: ≤ 4.11; pKd [5, 12]: 4.73
29 | VVQRCASNK |  |  |  |  |  | pKd [1, 9]: 6.18; pKd [2, 9]: 6.19; pKd [3, 9]: 5.08; pKd [4, 9]: ≤ 4.11; pKd [5, 9]: ≤ 4.32
30 | VVSTGYHFR |  |  |  |  |  | pKd [1, 9]: 7.50; pKd [2, 9]: 8.07; pKd [3, 9]: 8.77; pKd [4, 9]: 7.39; pKd [5, 9]: 8.13
31 | YANLDDVYSY | ≤ 4.59 | 7.42 | ≤ 4.48 | 4.81 | 5.78 | 
32 | YLLVKWYKK |  |  |  |  |  | pKd [1, 13]: 6.95; pKd [2, 13]: 6.72; pKd [3, 13]: 7.92; pKd [4, 13]: 7.52; pKd [5, 13]: ≤ 4.63
33 | YLTMKAIEK | 6.42 | 6.06 | 4.94 | 5.01 | 6.00 | 
34 | YSHLLPTQR | 5.39 | 5.93 | 7.64 | 6.05 | 7.59 | 
